Measurements taken from article PMC11187563, “The importance of tyrosines in multimers of cyclic RGD nonapeptides: towards αvβ6-integrin targeted radiotherapeutics” (RSC Medicinal Chemistry, 2024).
Like-named read-outs stand apart in the source and are kept apart here.

Tests used:
[1] = system: αvβ6-integrin expressing human lung adenocarcinoma cell line H2009 xenografts; experiment: Ex vivo biodistribution of 177Lu-labeled peptide tetramers in H2009 xenografted SCID mice; details: H2009 bearing SCID mice
Procedure: (§1) The biodistribution of the ^177Lu-labeled peptide conjugates was investigated in severe combined immunodeficiency (SCID) mice bearing subcutaneous xenografts of the αvβ6-integrin expressing human lung adenocarcinoma cell line H2009 on their right shoulders. Two representative time points after i.v. administration (p.i.) were evaluated.
(§2) Analytical HPLC was performed on a Shimadzu (Kyoto, Japan) Prominence HPLC system equipped with either a Dr. Maisch ReproSil Pur C18 AQ 150 × 4.6 mm, 5 μm, 120 Å (AC1) or a Phenomenex Kinetex C18 150 × 4.6 mm 5 μm column (AC2). Semipreparative HPLC was performed on a Shimadzu HPLC system equipped with either a Dr. Maisch ReproSil Pur C18 AQ 250 × 10 mm, 5 μm, 120 Å column with 5 mL min^−1 flow (PC1) or a Dr. Maisch ReproSil Pur C18 150 × 30 mm, 5 μm, 120 Å column with 20 mL min^−1 flow (PC2). Solvents for both systems were water (A) and acetonitrile (B) each supplemented with 0.1% (vol) trifluoroacetic acid (TFA). ESI-MS spectra (positive mode) were recorded on a Shimadzu LC-MS 2020 single quadrupol mass spectrometer. Solvents for MS applications were water (A) and acetonitrile (B) each supplemented with 0.1% (vol) formic acid. The other experimental procedures (determination of log D7.4, cultivation of H2009 human lung adenocarcinoma cells, generation of tumor xenografts in CB17 SCID mice, and biodistribution) were performed as described before.[28] All animal experiments have been carried out according to applicable law and institutional guidelines of Technical University of Munich, and were approved by the responsible local authority (Regierung von Oberbayern). The H2009 cells were regularly authenticated and tested for mycoplasma contamination. DOTPI-tetraazide,[43]FF (previously termed AvB6),[29]FY,[34] and YY (also referred to as Tyr2-alkyne)[36] were synthesized as described previously.

[2] = as above; details: CB17 SCID, mouse, iv, total radioactivity, H2009 bearing SCID mice; for tissue uptake at 1.5 h / tissue to tissue ratio at 1.5 h: 90 pmol, 90 min p.i.; for tissue uptake at 72 h / tissue to tissue ratio at 72 h: 92 pmol, 3 d p.i.
Procedure: as §1, §2

[3] = H2009 tumor, read-out: Tumor H2009 %IA/g
[4] = adrenals, read-out: Adrenals %IA/g
[5] = heart (myocard), read-out: Heart (myocard) %IA/g
[6] = kidneys, read-out: Kidneys %IA/g
[7] = large intestine (empty), read-out: Large intestine (empty) %IA/g
[8] = pancreas, read-out: Pancreas %IA/g
[9] = small intestine (empty), read-out: Small intestine (empty) %IA/g
[10] = stomach (empty), read-out: Stomach (empty) %IA/g
[11] = tumor/blood, read-out: tumor/organ ratio, Blood
[12] = tumor/heart (myocard), read-out: tumor/organ ratio, Heart (myocard)
[13] = tumor/liver, read-out: tumor/organ ratio, Liver
[14] = tumor/lung, read-out: tumor/organ ratio, Lung
[15] = tumor/pancreas, read-out: tumor/organ ratio, Pancreas
[16] = tumor/spleen, read-out: tumor/organ ratio, Spleen

SMILES: CC(C)C[C@@H]1NC(=O)[C@H](CC(=O)O)NC(=O)CNC(=O)[C@H](CCCNC(=N)N)NC(=O)[C@H](Cc2ccccc2)NC(=O)[C@H](CCCCNC(=O)CCc2cn(CCCNC(=O)CCP(=O)(O)CN3CCN(CP(=O)(O)CCC(=O)NCCCn4cc(CCC(=O)NCCCC[C@H]5C(=O)N[C@@H](Cc6ccccc6)C(=O)N[C@@H](CCCNC(=N)N)C(=O)NCC(=O)N[C@@H](CC(=O)O)C(=O)N[C@@H](CC(C)C)C(=O)N[C@@H](C)C(=O)N[C@@H](Cc6ccccc6)C(=O)N6CCC[C@@H]6C(=O)N5C)nn4)CCN(CP(=O)(O)CCC(=O)NCCCn4cc(CCC(=O)NCCCC[C@H]5C(=O)N[C@@H](Cc6ccccc6)C(=O)N[C@@H](CCCNC(=N)N)C(=O)NCC(=O)N[C@@H](CC(=O)O)C(=O)N[C@@H](CC(C)C)C(=O)N[C@@H](C)C(=O)N[C@@H](Cc6ccccc6)C(=O)N6CCC[C@@H]6C(=O)N5C)nn4)CCN(CP(=O)(O)CCC(=O)NCCCn4cc(CCC(=O)NCCCC[C@H]5C(=O)N[C@@H](Cc6ccccc6)C(=O)N[C@@H](CCCNC(=N)N)C(=O)NCC(=O)N[C@@H](CC(=O)O)C(=O)N[C@@H](CC(C)C)C(=O)N[C@@H](C)C(=O)N[C@@H](Cc6ccccc6)C(=O)N6CCC[C@@H]6C(=O)N5C)nn4)CC3)nn2)N(C)C(=O)[C@H]2CCCN2C(=O)[C@H](Cc2ccccc2)NC(=O)[C@H](C)NC1=O [Compound 177Lu-Y0, metal not drawn]
- tumor/organ ratio, Kidneys ([1]; 90 min p.i.): 0.0
- tumor/organ ratio, Kidneys ([1]; 3 d p.i.): 0.0
- tissue uptake at 1.5 h [2, 3]: 3.23 %ID/g
- tissue uptake at 72 h [2, 3]: 1.72 %ID/g
- tissue uptake at 1.5 h [2, 4]: 1.36 %ID/g
- tissue uptake at 72 h [2, 4]: 0.82 %ID/g
- tissue uptake at 1.5 h ([2]; blood, read-out: Blood %IA/g): 1.2 %ID/g
- tissue uptake at 72 h ([2]; blood, read-out: Blood %IA/g): 0.02 %ID/g
- tissue uptake at 1.5 h ([2]; bone, read-out: Bone %IA/g): 1.45 %ID/g
- tissue uptake at 72 h ([2]; bone, read-out: Bone %IA/g): 0.42 %ID/g
- tissue uptake at 1.5 h [2, 5]: 1.13 %ID/g
- tissue uptake at 72 h [2, 5]: 0.43 %ID/g
- tissue uptake at 1.5 h [2, 6]: 208 %ID/g
- tissue uptake at 72 h [2, 6]: 243 %ID/g
- tissue uptake at 1.5 h [2, 7]: 3 %ID/g
- tissue uptake at 72 h [2, 7]: 1.19 %ID/g
- tissue uptake at 1.5 h ([2]; liver, read-out: Liver %IA/g): 5.03 %ID/g
- tissue uptake at 72 h ([2]; liver, read-out: Liver %IA/g): 2.61 %ID/g
- tissue uptake at 1.5 h ([2]; lung, read-out: Lung %IA/g): 3.59 %ID/g
- tissue uptake at 72 h ([2]; lung, read-out: Lung %IA/g): 1.22 %ID/g
- tissue uptake at 1.5 h ([2]; muscle, read-out: Muscle %IA/g): 0.53 %ID/g
- tissue uptake at 72 h ([2]; muscle, read-out: Muscle %IA/g): 0.29 %ID/g
- tissue uptake at 1.5 h [2, 8]: 0.49 %ID/g
- tissue uptake at 72 h [2, 8]: 0.31 %ID/g
- tissue uptake at 1.5 h [2, 9]: 1.67 %ID/g
- tissue uptake at 72 h [2, 9]: 0.82 %ID/g
- tissue uptake at 1.5 h ([2]; spleen, read-out: Spleen %IA/g): 2.22 %ID/g
- tissue uptake at 72 h ([2]; spleen, read-out: Spleen %IA/g): 1.58 %ID/g
- tissue uptake at 1.5 h [2, 10]: 4.15 %ID/g
- tissue uptake at 72 h [2, 10]: 2.63 %ID/g
- tissue to tissue ratio at 72 h ([2]; tumor / adrenals, read-out: tumor/organ ratio, Adrenals): 2.1
- tissue to tissue ratio at 72 h ([2]; tumor / bone, read-out: tumor/organ ratio, Bone): 5
- tissue to tissue ratio at 72 h ([2]; tumor / large intestine (empty), read-out: tumor/organ ratio, Large intestine (empty)): 2.1
- tissue to tissue ratio at 72 h ([2]; tumor / muscle, read-out: tumor/organ ratio, Muscle): 8.2
- tissue to tissue ratio at 72 h ([2]; tumor / small intestine (empty), read-out: tumor/organ ratio, Small intestine (empty)): 2.2
- tissue to tissue ratio at 72 h ([2]; tumor / stomach (empty), read-out: tumor/organ ratio, Stomach (empty)): 0.8
- tissue to tissue ratio at 1.5 h ([2]; tumor/adrenals, read-out: tumor/organ ratio, Adrenals): 2.9
- tissue to tissue ratio at 1.5 h [2, 11]: 2.7
- tissue to tissue ratio at 72 h [2, 11]: 97.5
- tissue to tissue ratio at 1.5 h ([2]; tumor/bone, read-out: tumor/organ ratio, Bone): 2.4
- tissue to tissue ratio at 1.5 h [2, 12]: 3
- tissue to tissue ratio at 72 h [2, 12]: 4.3
- tissue to tissue ratio at 1.5 h ([2]; tumor/large intestine (empty), read-out: tumor/organ ratio, Large intestine (empty)): 1.1
- tissue to tissue ratio at 1.5 h [2, 13]: 0.7
- tissue to tissue ratio at 72 h [2, 13]: 0.7
- tissue to tissue ratio at 1.5 h [2, 14]: 0.9
- tissue to tissue ratio at 72 h [2, 14]: 1.5
- tissue to tissue ratio at 1.5 h ([2]; tumor/muscle, read-out: tumor/organ ratio, Muscle): 6
- tissue to tissue ratio at 1.5 h [2, 15]: 6.7
- tissue to tissue ratio at 72 h [2, 15]: 6.3
- tissue to tissue ratio at 1.5 h ([2]; tumor/small intestine (empty), read-out: tumor/organ ratio, Small intestine (empty)): 2
- tissue to tissue ratio at 1.5 h [2, 16]: 1.6
- tissue to tissue ratio at 72 h [2, 16]: 1.1
- tissue to tissue ratio at 1.5 h ([2]; tumor/stomach (empty), read-out: tumor/organ ratio, Stomach (empty)): 0.8
